We go through five molecules from patent EP4803150A2 (Lyvgen Biopharma Holdings Limited, dated 2026).

T1: CD3 (human)
T1 chain: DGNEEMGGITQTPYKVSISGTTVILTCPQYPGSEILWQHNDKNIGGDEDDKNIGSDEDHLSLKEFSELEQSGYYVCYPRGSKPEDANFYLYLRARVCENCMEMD

B1: Anti-CD3 Ly305 (antibody, V domains shown)
VH: EVQLVESGGGLVQPGGSLRLSCAASGFTFSTYAMNWVRQAPGKGLEWVGRIRSKYNNYATYYADSVKGRFTISRDDSKNSLYLQMNSLKTEDTAVYYCVRHGNFGNSYVSWFAYWGQGTLVTVSS
VL: QAVVTQEPSLTVSPGGTVTLTCRSSTGAVTTSNYANWVQQKPGQAPRGLIGGTNKRAPWTPARFSGSLLGGKAALTITGAQAEDEADYYCALWYSNLWVFGGGTKLTVL
notes: Parent mAb; also called CD3 mAb Ly305
B2: Ly2278 (bispecific antibody)
chain 1: QVQLQQSGAELVRPGSSVKISCKASGYAFSSYWMNWVKQRPGQGLEWIGQIWPGDGDTNYNGKFKGKATLTADESSSTAYMQLSSLASEDSAVYFCARRETTTVGRYYYAMDYWGQGTTVTVSSASTKGPSVFPLAPSSKSTSGGTAALGCLVKDYFPEPVTVSWNSGALTSGVHTFPAVLQSSGLYSLSSVVTVPSSSLGTQTYICNVNHKPSNTKVDKKVEPKSCGGGGSGGGGSGGGGSGGGGSEVQLVESGGGLVQPGGSLRLSCAASGFTFSTYAMNWVRQAPGKGLEWVGRIRSKYNNYATYYADSVKGRFTISRDDSKNSLYLQMNSLKTEDTAVYYCVRHGNFGNSYVSWFAYWGQGTLVTVSSGGGGSDKTHTCPPCPAPEAAGPSVFLFPPKPKDTLMISRTPEVTCVVVDVSHEDPEVKFNWYVDGVEVHNAKTKPREEQYNSTYRVVSVLTVLHQDWLNGKEYKCKVSNKALPAPIEKTISKAKGQPREPQVYTLPPSREEMTKNQVSLWCLVKGFYPSDIAVEWESNGQPENNYKTTPPVLDSDGSFFLYSKLTVDKSRWQQGNVFSCSVMHEALHNHYTQKSLSLSPG
chain 2: QVQLQQSGAELVRPGSSVKISCKASGYAFSSYWMNWVKQRPGQGLEWIGQIWPGDGDTNYNGKFKGKATLTADESSSTAYMQLSSLASEDSAVYFCARRETTTVGRYYYAMDYWGQGTTVTVSSASTKGPSVFPLAPSSKSTSGGTAALGCLVKDYFPEPVTVSWNSGALTSGVHTFPAVLQSSGLYSLSSVVTVPSSSLGTQTYICNVNHKPSNTKVDKKVEPKSCGGGGSGGGGSGGGGSGGGGSQAVVTQEPSLTVSPGGTVTLTCRSSTGAVTTSNYANWVQQKPGQAPRGLIGGTNKRAPWTPARFSGSLLGGKAALTITGAQAEDEADYYCALWYSNLWVFGGGTKLTVLGGGGSDKTHTCPPCPAPEAAGPSVFLFPPKPKDTLMISRTPEVTCVVVDVSHEDPEVKFNWYVDGVEVHNAKTKPREEQYNSTYRVVSVLTVLHQDWLNGKEYKCKVSNKALPAPIEKTISKAKGQPREPQVYTLPPSREEMTKNQVSLSCAVKGFYPSDIAVEWESNGQPENNYKTTPPVLDSDGSFFLVSKLTVDKSRWQQGNVFSCSVMHEALHNRFTQKSLSLSPG
chain 3: not shown
notes: CD19/CD3
B3: Ly1963 (multi-specific antibody)
chain 1: QVQLVQSGAEVKKPGASVKVSCKASGYTFTSYVMHWVRQKPGQGLEWIGYINPYNEGTESTDKFKGRATMTSDKSTSTVYMELSSLRSEDTAVYYCASIYYGYEGTYFGVWGQGTLVTVSSASTKGPSVFPLAPSSKSTSGGTAALGCLVKDYFPEPVTVSWNSGALTSGVHTFPAVLQSSGLYSLSSVVTVPSSSLGTQTYICNVNHKPSNTKVDKKVEPKSCGGGGSGGGGSGGGGSGGGGSEVQLVESGGGLVQPGGSLRLSCAASGFTFSTYAMNWVRQAPGKGLEWVGRIRSKYNNYATYYADSVKGRFTISRDDSKNSLYLQMNSLKTEDTAVYYCVRHGNFGNSYVSWFAYWGQGTLVTVSSGGGGSDKTHTCPPCPAPEAAGPSVFLFPPKPKDTLMISRTPEVTCVVVDVSHEDPEVKFNWYVDGVEVHNAKTKPREEQYNSTYRVVSVLTVLHQDWLNGKEYKCKVSNKALPAPIEKTISKAKGQPREPQVYTLPPSREEMTKNQVSLWCLVKGFYPSDIAVEWESNGQPENNYKTTPPVLDSDGSFFLYSKLTVDKSRWQQGNVFSCSVMHEALHNHYTQKSLSLSPGGGGGSGGGGSGGGGSGGGGSQVQLVQSGAEVKKPGASVKVSCKASGYTFAGFEMHWVRQAPGQGLEWMGAIDPKTGGTDYNQKFKDRVTMTRDTSISTAYMELSRLRSDDTAVYYCARDLGYFDVWGQGTLVTVSS
chain 2: QVQLVQSGAEVKKPGASVKVSCKASGYTFTSYVMHWVRQKPGQGLEWIGYINPYNEGTESTDKFKGRATMTSDKSTSTVYMELSSLRSEDTAVYYCASIYYGYEGTYFGVWGQGTLVTVSSASTKGPSVFPLAPSSKSTSGGTAALGCLVKDYFPEPVTVSWNSGALTSGVHTFPAVLQSSGLYSLSSVVTVPSSSLGTQTYICNVNHKPSNTKVDKKVEPKSCGGGGSGGGGSGGGGSGGGGSQAVVTQEPSLTVSPGGTVTLTCRSSTGAVTTSNYANWVQQKPGQAPRGLIGGTNKRAPWTPARFSGSLLGGKAALTITGAQAEDEADYYCALWYSNLWVFGGGTKLTVLGGGGSDKTHTCPPCPAPEAAGPSVFLFPPKPKDTLMISRTPEVTCVVVDVSHEDPEVKFNWYVDGVEVHNAKTKPREEQYNSTYRVVSVLTVLHQDWLNGKEYKCKVSNKALPAPIEKTISKAKGQPREPQVYTLPPSREEMTKNQVSLSCAVKGFYPSDIAVEWESNGQPENNYKTTPPVLDSDGSFFLVSKLTVDKSRWQQGNVFSCSVMHEALHNHYTQKSLSLSPGGGGGSGGGGSGGGGSGGGGSDIQMTQSPSSLSASVGDRVTITCRASQDIRSNLNWYQQKPGGAVKLLIYYTSRLHSGVPSRFSGSGSGTDYTLTISSLQPEDFATYFCQQSEKLPRTFGGGTKVEIR
chain 3: EIVLTQSPATLSLSPGERATLSCRASSSVSYMHWYQQKPGQAPRPWIYATSNLASGIPARFSGSRSGTDYTLTISSLEPEDFAVYYCQQWSSNTLTFGGGTKVEIKRTVAAPSVFIFPPSDEQLKSGTASVVCLLNNFYPREAKVQWKVDNALQSGNSQESVTEQDSKDSTYSLSSTLTLSKADYEKHKVYACEVTHQGLSSPVTKSFNRGEC
notes: Trispecific B7H3/CD3/CD137
B4: Ly2128 (multi-specific antibody)
chain 1: QVQLVQSGAEVKKPGASVKVSCKASGYTFTSYVMHWVRQKPGQGLEWIGYINPYNEGTESTDKFKGRATMTSDKSTSTVYMELSSLRSEDTAVYYCASIYYGYEGTYFGVWGQGTLVTVSSASTKGPSVFPLAPSSKSTSGGTAALGCLVKDYFPEPVTVSWNSGALTSGVHTFPAVLQSSGLYSLSSVVTVPSSSLGTQTYICNVNHKPSNTKVDKKVEPKSCGGGGSGGGGSGGGGSGGGGSEVQLVESGGGLVQPGGSLRLSCAASGFTFSTYAMNWVRQAPGKGLEWVGRIRSKYNNYATYYADSVKGRFTISRDDSKNSLYLQMNSLKTEDTAVYYCVRHGNFGNSYVSWFAYWGQGTLVTVSSGGGGSDKTHTCPPCPAPEAAGPSVFLFPPKPKDTLMISRTPEVTCVVVDVSHEDPEVKFNWYVDGVEVHNAKTKPREEQYNSTYRVVSVLTVLHQDWLNGKEYKCKVSNKALPAPIEKTISKAKGQPREPQVYTLPPSREEMTKNQVSLWCLVKGFYPSDIAVEWESNGQPENNYKTTPPVLDSDGSFFLYSKLTVDKSRWQQGNVFSCSVMHEALHNHYTQKSLSLSPGGGGGSGGGGSGGGGSGGGGSQVQLVQSGAEVKKPGASVKVSCKASGYTFTSYYIHWVRQAPGQGLEWIGCIYPGNVNTNYNEKFKDRATLTVDTSISTAYMELSRLRSDDTAVYFCTRSHYGLDWNFDVWGQGTTVTVSS
chain 2: not shown
chain 3: EIVLTQSPATLSLSPGERATLSCRASSSVSYMHWYQQKPGQAPRPWIYATSNLASGIPARFSGSRSGTDYTLTISSLEPEDFAVYYCQQWSSNTLTFGGGTKVEIKRTVAAPSVFIFPPSDEQLKSGTASVVCLLNNFYPREAKVQWKVDNALQSGNSQESVTEQDSKDSTYSLSSTLTLSKADYEKHKVYACEVTHQGLSSPVTKSFNRGEC
notes: Tri-specific B7H3/CD3/CD28
B5: Ly1965 (bispecific antibody)
chain 1: QVQLVQSGAEVKKPGASVKVSCKASGYTFTSYVMHWVRQKPGQGLEWIGYINPYNEGTESTDKFKGRATMTSDKSTSTVYMELSSLRSEDTAVYYCASIYYGYEGTYFGVWGQGTLVTVSSASTKGPSVFPLAPSSKSTSGGTAALGCLVKDYFPEPVTVSWNSGALTSGVHTFPAVLQSSGLYSLSSVVTVPSSSLGTQTYICNVNHKPSNTKVDKKVEPKSCGGGGSGGGGSGGGGSGGGGSEVQLVESGGGLVQPGGSLRLSCAASGFTFSTYAMNWVRQAPGKGLEWVGRIRSKYNNYATYYADSVKGRFTISRDDSKNSLYLQMNSLKTEDTAVYYCVRHGNFGNSYVSWFAYWGQGTLVTVSSGGGGSDKTHTCPPCPAPEAAGPSVFLFPPKPKDTLMISRTPEVTCVVVDVSHEDPEVKFNWYVDGVEVHNAKTKPREEQYNSTYRVVSVLTVLHQDWLNGKEYKCKVSNKALPAPIEKTISKAKGQPREPQVYTLPPSREEMTKNQVSLWCLVKGFYPSDIAVEWESNGQPENNYKTTPPVLDSDGSFFLYSKLTVDKSRWQQGNVFSCSVMHEALHNHYTQKSLSLSPG
chain 2: QVQLVQSGAEVKKPGASVKVSCKASGYTFTSYVMHWVRQKPGQGLEWIGYINPYNEGTESTDKFKGRATMTSDKSTSTVYMELSSLRSEDTAVYYCASIYYGYEGTYFGVWGQGTLVTVSSASTKGPSVFPLAPSSKSTSGGTAALGCLVKDYFPEPVTVSWNSGALTSGVHTFPAVLQSSGLYSLSSVVTVPSSSLGTQTYICNVNHKPSNTKVDKKVEPKSCGGGGSGGGGSGGGGSGGGGSQAVVTQEPSLTVSPGGTVTLTCRSSTGAVTTSNYANWVQQKPGQAPRGLIGGTNKRAPWTPARFSGSLLGGKAALTITGAQAEDEADYYCALWYSNLWVFGGGTKLTVLGGGGSDKTHTCPPCPAPEAAGPSVFLFPPKPKDTLMISRTPEVTCVVVDVSHEDPEVKFNWYVDGVEVHNAKTKPREEQYNSTYRVVSVLTVLHQDWLNGKEYKCKVSNKALPAPIEKTISKAKGQPREPQVYTLPPSREEMTKNQVSLSCAVKGFYPSDIAVEWESNGQPENNYKTTPPVLDSDGSFFLVSKLTVDKSRWQQGNVFSCSVMHEALHNRFTQKSLSLSPG
chain 3: EIVLTQSPATLSLSPGERATLSCRASSSVSYMHWYQQKPGQAPRPWIYATSNLASGIPARFSGSRSGTDYTLTISSLEPEDFAVYYCQQWSSNTLTFGGGTKVEIKRTVAAPSVFIFPPSDEQLKSGTASVVCLLNNFYPREAKVQWKVDNALQSGNSQESVTEQDSKDSTYSLSSTLTLSKADYEKHKVYACEVTHQGLSSPVTKSFNRGEC
notes: B7H3/CD3

The assay deals with T1, CD3. In words: CD3 binding as in Example 2 (ELISA or FCM).
In the case of B1, the EC50 was 0.03 µg/mL.
The value for B2 was 1.46 µg/mL; that for B3 was 0.74 µg/mL.
In turn, B4 had an EC50 of 1.08 µg/mL.
Regarding B5, the concentration giving a half-maximal response (EC50) is 0.419 µg/mL.

As usually defined, the EC50 is the concentration giving half of the maximal effect. Read a high EC50 as a need for much substance.
